This note sets out measurements from the nanobody polyreactivity screen of Harvey et al. (2022).

A short description of the data set: yeast display, Sf9 membrane polyspecificity reagent, FACS + sequencing; frameworks hold sequencing errors. The gist of the method:
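Nanobodies from a synthetic yeast display library (Saccharomyces cerevisiae BJ5465), induced 36–48 hours with galactose, were stained 1 hour at 4 °C with 10% biotinylated, detergent-solubilized Sf9 membrane reagent, enriched on streptavidin microbeads, then FACS-sorted. Anti-HA (expression) and streptavidin (reagent binding) fluorescence set low and high (top ~1%) gates. Polyreactivity labels come from the gate of origin. Genes were colony-PCR amplified, MiSeq 2 × 250 sequenced and filtered by CDR length.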
In the case of “QVQLVESGGGLVQAGRTLRLSCAASGSTFSVYGMVWYRQAPGKERELVAINIIGGSTYYADSVKGRFTISRDNAKYTVYLQMNSLKPEDTAVFYCAADSFPSEFDYWGQGTQVTVSS”, the “polyreactivity (PSR sort gate)” value is listed as “low polyreactivity”.
The result for “QVQLVESGGGLVQAGRTLRLSCAPSGSIFSYYAMGWYRQAPGKERELVAAITSGGTTYYADSVKGRFTISRDNAKNTVYLQMNSVKPEDTAVYYCAADFVFRWYSYTGRWYSSYDYWGQGTQVTVSS” reads “low polyreactivity”; that for “QVQLVESGGGLVQAGSSLRISCAASGRTLIYYAMGWYRQAPGKEREMVASINRRGDSTYYADSVKGRFTISRYNAKNTVYLQMYSLKPEDTAVYYCAKVLYGGYPENRYFVGWGREYLGQGTQVTVSS”, “high polyreactivity”.
Next, “QVQLVESGGGLVQAGVSLRLICDAYGRIFIVNAMGWYRQAPGKERELVAAISRGGSKNYADSVKGRFTISRDNAKNTVYLQMNSLKPEDTAVYYWNGDGSSYWYPVTQHGGDYCGQGTQVTVSS”: “low polyreactivity”; “QVQLVESGGGLVQAGVSLRLSCAASGFIFEPSAMGWYRQAPGKERELVAAISSGGSTNADSVKGRFTISRDNAKNTVYLQMNSLKPEDTAVYYCAADSYYSVWGFYYWGQGTQVTVSS”: “low polyreactivity”.
Consider “QVQLVESGGGLVQAGVSLRLSCAASGFIFSTYAMGGYRQAPGKERELFASIDWSGDSTYYADSVKGRFTISRDNAKNTVYLQMNSLKPEDTAVYYCAASLWPDYEYDYWGQGTQVTVSS”, for which the “polyreactivity (PSR sort gate)” value is given as “low polyreactivity”.
For the sequence “QVQLVESGGGLVQAGVSLRLSCAASGFTFTTYVMGSYRQAPGKERELVAAISRRGTSTRYADSVKGRFTISRDNAKNTVYLQMNSLKPEDTAVYYCAADRPYSIVPYDYWGQGTQVTVSS”, the “polyreactivity (PSR sort gate)” value was “high polyreactivity”.
“QVQLVESGGGLVQAGVSLRLSCAASGITFNHYTMGWYRQAPGKERELVAAISSRGSTTYYADSVKGRFTISRDNAKNTVYLQMNSLKPEDTAVYYCAAVYYLYSAWRYDYWGQGTQVTVSS”: the “polyreactivity (PSR sort gate)” value is listed as “high polyreactivity”.
The result for “QVQLVESGGGLVQAGVSLRLSCAASGITLYRYAMGWYRQATGKERELVADISSGGGTTYYADSVKGRFTISRDNAKNTVYLQMNSLKPEDTAVYYCAADYGFRYPLYDYWGQGTQVTVSS” reads “low polyreactivity”.
Next, “QVQLVESGGGLVQAGVSLRLSCAASGRIFNYYTMGWYRQAPGKERELVAAINWSGGSTYYADSVKGRFTISRDNAKNTVYLQMNSLKPEDTAVYYCNALGYYGRAYYRGYDYWGQGTQVTVSS”: “high polyreactivity”; “QVQLVESGGGLVQAGVSLRLSCAASGRIFVGYAMGWYRQAPGKERELVAGIRYSGGSTYYADSVKGRFTISRDNAKNTVYLQMNSLKPEDTAVYYCATQVWHYAGRPNYKYDYWGQGTQVTVSS”: “low polyreactivity”.
The result for “QVQLVESGGGLVQAGVSLRLSCAASGRTFTHYPMGWYRQAPGKERELVAAISRSGGTTYYADSVKGRFTISRDNAKSTVYLQMNSLKPEDTAVYYCNAEVVDSELGVFVDYYWAYDYWGQGTQVTVSS” reads “high polyreactivity”.
Regarding “QVQLVESGGGLVQAGVSLRLSCAASGRTFVWYVKGWYRQAPGKERELVAAINRSGGRTYYADSVKGRFTISRDNAKNTVYLQMNSLKPEDTAVYYCAAARYVRYYSGYWGQGTQVTVSS”, the “polyreactivity (PSR sort gate)” value is “high polyreactivity”.
With “QVQLVESGGGLVQAGVSLRLSCAASGSIFAYYAMGWYRQAPGKERELVATIRSSGGRTYYADSVKGRFTISRDNAKNNVYLHLNSLKPEDTAVYYCAAERSITYDYWGQGTQVTVSS”, the “polyreactivity (PSR sort gate)” value was “high polyreactivity”.
Take “QVQLVESGGGLVQAGVSLRLSCAASGSIFGHYAMGWYRQAPGKERELVAAISWSGTSTYYADSVKGRFTISRDNAKNTVYLQMNSLKPEDTAVYYCNVVYRVVSPSGGGYWGQGTQVTVSS”: the “polyreactivity (PSR sort gate)” value is recorded as “high polyreactivity”.
The result for “QVQLVESGGGLVQAGVSLRLSCAASGSIFRIYGMGWYRQAPGKEREFVAAITHSGGSTYYADSVKGRFTISRDNAKNTVYLQMNSLKPEDTAVYYCAAEDYNYWSYDYWGQGTQVTVSS” reads “low polyreactivity”; that for “QVQLVESGGGLVQAGVSLRLSCAASGSIFYYYAMGWYRPAPGKERELVAAITRSGGSTYYADSVKGRFTISRDNAKNTVYLQMNSLKPEDTAVYYCAKDAHAYRDLDYWGQGTQVTVSS”, “low polyreactivity”; that for “QVQLVESGGGLVQAGVSLRLSCAASGSTFAFYDMGWYRQAPGKERELVAGISSSGSTYYADSVKGPFTISRDNAKNTVYLQMNSLKPEDTAVYYCAADAPYLVPYGWWDYDYDYWGQGTQVTVSS”, “low polyreactivity”.
In the case of “QVQLVESGGGLVQAGVSLRLSCAASGSTFPVNTMGWYRQAPGKERELVAAISWSGGRTYYADSVKGRFTISRDNAKNNVYLQMNILKPEDTAVYYCAADIGSYYYYTYYYWGQGSQVTVSS”, the “polyreactivity (PSR sort gate)” value is “high polyreactivity”.
On to “QVQLVESGGGLVQAGVSLRLSCAASGSTFYRKTMGWYIQAPGKERELVAAISSSGGSTYYADSVNGRFTISRDNAKNTVYLQMNSLKPEDTAVYYCADTYSPFDFYYWRQGTQVTVSS”, for which the “polyreactivity (PSR sort gate)” value is “low polyreactivity”.
As to “QVQLVESGGGLVQAGVSLRLSCAASGSTVGYNAMGWYRQAPGKERELVAAISGNGGSTYADSVKGRFTISRDNAKNTVYLQMNSLKPEDTAVYFCAAVQYGYGLASDSIFDYWGQGTQVTVSS”, the “polyreactivity (PSR sort gate)” value is on record as “high polyreactivity”.
The result for “QVQLVESGGGLVQAGVSLRLSCAASGTFFGYAMGWYRQAPGKERELVASITSGDSTNYADSVKGRFTISRDNAKKTVYLQMNSLKPEDTAVYYCNADRFADYDYWGQGTQVTVSS” reads “low polyreactivity”.
Next, “QVQLVESGGGLVQAGVSLRLSCAASGYIFRFNAMGWYRQAPGKERELVAVITSGARTYYADSVKGRFTISRDNAKNTVYLQMNSLKPEDTAVYYCNAGARRYLYDYWGQGTQVTVSS”: “low polyreactivity”; “QVQLVESGGGLVQAGVSLRLSCASSGFTFHYYAMGWYRQAPGKERELVAAISWSSGRTYYADSVKGRFTISRDNAKNTVYLQMNSLKPEDTAVYYCAASSYNRGDYWGQGTQVTVSS”: “low polyreactivity”.
Regarding “QVQLVESGGGLVQAGVSLRLSCDASGSILRENAMGWYRQAPGKERELVAVITRGGNTYYADSVKGRFTISRDNAKNTVYLQMNSLKPEDTAVYYCAAKRRERYGLTYGYWGQGTQVTVSS”, the “polyreactivity (PSR sort gate)” value is recorded as “high polyreactivity”.
Next, “QVQLVESGGGLVQARGILRLSCAASGNIFGRYAMGWSRQAPGKERELVAAITRSCGRTYYADSVKGRFTISRHHAKNTVYLQRNSLKPEDTAGYYCAAVGGRDVYPVVDRDYWGQGTQLTVSS”: “low polyreactivity”; “QVQLVESGGGLVQARGSLRLICAASVQIFRVYAMGWSRQAPGKEREFVAAMTYDGGNTYYADSVKGRFTISRDNAKNTVYLQMLSLKPEDTAVYYCAKDYGEWGQGTQVTVSS”: “low polyreactivity”.
The result for “QVQLVESGGGLVQARGSLRLSCAASGFIIRWNTKGWYRQAPGKVRELVAAISSRGGSTYYADSVKGRFKISRDNAKNTVYLQMNSRKPEDTAVYYCNAVRGDEYWGLGTQVTVSS” reads “high polyreactivity”.
Consider “QVQLVESGGGLVQARGSLRLSCAASGFIYRYNVMGWYRQAPGKERELVAAISTSGGRTYYADSVKGRFTISRDNAKITVYLQMNSLKPEDTAVYYCIAVISEVHKVRDGFYWGQGSQVTVSS”, for which the “polyreactivity (PSR sort gate)” value was “high polyreactivity”.
The result for “QVQLVESGGGLVQARGSLRLSCAASGFNISNYAMGWYREAPGKESELVAAIRRSGGSTYYADSVKGRFTISRDNAKNTVYLQMNSRKPEDTAVYYCAAYPKRGSRYDYWGLGTQVTVSS” reads “high polyreactivity”.
